In the nanobody polyreactivity screen of Harvey et al. (2022):

Assay: yeast display, Sf9 membrane polyspecificity reagent, FACS + sequencing; frameworks hold sequencing errors
Outline: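 Sorting gates, low and high (top ~1%), were placed on anti-HA fluorescence to track expression and on streptavidin fluorescence to track reagent binding. A clone's polyreactivity label is taken from the gate it came out of. The reagent was 10% biotinylated, detergent-solubilized Sf9 membrane, applied for 1 hour at 4 °C to galactose-induced yeast display cells.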

Sequence	polyreactivity (PSR sort gate)
QVQLVESGGGLVQAGGSLRLSCAASGSTFYPYAMGWYRQAPGKERELVAAITSSGGSTYYADSVKGRFTISRDNAKNTVYLQMNSLKPEDSAVYYCAKLHVPPVHYDYWGQGTQVTVSS	low polyreactivity
QVQLVESGGGLVQAGGSLRLSCTASGSTFVAYAMGWYRQAPGKERELVAAITSSGGRTYYADSVKGRFTISRDNAKNTVYLQMNSLKPEDTAVYYCAAVTHGRYDWGQGTQVTVSS	high polyreactivity
QVQRVESGGGLVQAGGSLRLSCAASGNTFYGYTMGWYRQAPGKERELVAAISGRGGSTTYADSVKGRFTISRDNEKNTVYCQMNSLKPEDTAVYDCAANSVYIRTRFYYWGQGTQETVSS	high polyreactivity
QVQLVESGGGLVQAGGSLRLSCAASGLTFSKNAMGWYRQAPGKEREVVATISYSSYRTNYADSVKGRFTISRDNANNPVYLQMNSLKPEDTAVYYCAARVSKGWPTHYDYWGQGTQVTVSS	high polyreactivity
QVQLVESGGGLVQAGGSLRLSCAASGRTFRWYAMGWYRKAPGKEWELVAAISYRGGSTYADSVKGRFTISRDNEKNTVNLQMNSLKPEDTAVYYCAAKYYDYGPYYYWGQGTQETVSS	high polyreactivity
HVQLEESGGGLVQAGGSLRLSCAASGRIFYPYAMGWYRQAPGKERELVAAISRSGGSTYYADSVKGRFTISRDNAKNTVYLQMNSLKPEDTAVYYCATGFYRAISHHGYDYWGQGTQVTVSS	low polyreactivity
QVQLVESGGGLVQAGGSLRLSCAASGGTFPSYAMGWYRQAPGKERELVAAISWSGGRTYYADSVKGRFTISRDNAKNTVYLQMNSLKPEDTAVYYCNADDYGYSFNYWGQGTQVTVSS	high polyreactivity
QVQLVESGGGLVQAGGSLRLSCAASGRIFTRYAMGWYRQAPGKERELVAAITGSGGSTYYADSVKGRFTISRDNAKNTVYLQMNSLKPEDTAVYYCNKVTGRNADRYGYWGQGTQVTVSS	high polyreactivity
QVQLVESGLGLVQEGGCLRVSCAASGSIFSHYAMGWDSQAPGKDREVVAAITGGGITYYADSVKGRFTISRDNAKNTVYLQMNSLIPEDTAVYYWATDSLIFTIFDYSGQGTQVTVSS	low polyreactivity
QVKLVETGGGLVQAGGSLRLSCAASGSTFGLYAMGWYRQAPGKERELVAAITWRGGRTYYADSVKGRFTISRDNAKNTVDLQMNSLKPEDTAVNFCAKGYDYYVRRYYYWGQGTQVTVSS	high polyreactivity
QVQLVESGGGLVQAGGRLRLSCAASGLTYTRYTMGWYRPAPGKERELVAAITSSGGSTYYADSVKGRFTISRDNAKNTVFLQMNSLKPEDTAVYFCAARYPGTRGDGYWGQGTQVTVSS	high polyreactivity
QVQLVESRGGLVQAGGSLRLSCAASGSTLSQNAMGWYRQAPGKEREFDADISGSGDSTYYADSVKGRFTISRDNAKNTFYLQMNSLKPEDTAVYYCATPSPHVGLKWEYDYWGQGTQVTVSS	low polyreactivity
QVQLVESGGGLVQAGGSLRLSCAASGLTFGLNAMGWYSQAPGKERELVAAITWSGGSTYYADSVKGRFTISRDNAKNTVYLQMNSLKPEDTAVYYCATDNLSVNGGYNYWGQGTQVTVSS	low polyreactivity
QVHLVESGGGLVQAGGSLRLSCAASGIIFYRYAMGWYRQAPGKESELVAAITRRTASTYYADSVKGRFTLSRDNAKNTVYLPLNSLKPEDSAVYYCSAYSPYSHIVDNFDYWGQGTQVTVSS	low polyreactivity
QVQLVESGGGLVQAGGSLRLSCAASGSIFYINPMGWYRQAPGKERELVAAINFSDGRTYYADSVKGRFTISRDNAKNTVYLQMNSLKPEDTAVYYCAAAVYPSEYDYWGQGTQVTVSS	low polyreactivity
QVQLVESGGGLVQAGGSLRLSCAASGSTFRAYAMGWYRQAPGTEWELVAAISAGGSTNYADSVKGRFTISRDHAKNTVSLQMNCLKRDDTAVYYCAKGWYYVSPYGYRKRVYYWGQGTQVTVSS	high polyreactivity

Sequence	polyreactivity (PSR sort gate)
QVQLVESGGGLVQAGGSLRLSCAASGSIFRGYAMGWYIQAPGKERELVAAITSRGGSTYYADSVKGRFTISRDNAKNTVYLQMNSLKPEDTEVYYCNKRVYYPWGQGTQVTVSS	high polyreactivity
QVQLVESGGGLVQAGGSLRLSCAASGSTLGVNAMGRYRQAPGKEREFVAAITGRGGNSYYADSVKGRFTISRDNAKNTVYLKMNSLKPEDTAVYYCAAERQPYRTSSYNYWGQGSQVTVSS	high polyreactivity
QVQLVESGGGLVQAGGSLRLSCAASGRTFTYYAMGWYRQATGKERELVAAISRGGGSTHYADSVKGRFTISRDNAKNTVYFQMNSLKPEDTAVYYCAARYSTRYKYDYWGQGTQVTVSS	high polyreactivity
QVQLVESGGGLVQTGGSLRLSCAASGRIFNGNAMGWYRQAPGKERELVAAITKSGGNTYYADSVKGRFTISRDNAKNTVYLEMNSLKQEDTAVYYCNAYYSLGAWKGAYDYWGQGTQVTVSS	low polyreactivity
QVQLVESGGGLVQAGGSLRLSCAASGITFNYYAMGWYRQAPGKERELVAAITDDGNTNYADSVKGRFTISRDNAKNTVYLQMNSLKPEDTAVYYCAADLLGIPDYEYWGQGTQVTVSS	low polyreactivity
QVQLVESGGGLVQAGGSLRLSCAASGRIFNPYAMGWYRQAPGKERELVAAISWSGSTTYYADSVKGRFTISRDNAKNTVYLQMNSLKPEDTAVYYCAAEVVFFGWNYDYWGQGTQVTVSS	high polyreactivity
QVQLVESLGGLVQAGGSLRLSSAASGSIFRRYAMGWYREAPGKERELVAAITSGDTTKYADSLKGRFTISRDNAKNNVYLHMNSLKPEDTAVYYCNKKGWPRFVHGFLRRDDYWGQGTQVTLSS	low polyreactivity
QVQLVESGGGLVQAGGSLRLSCAASGRTFPYNARGLYRQAPGKERELVASITRRGGSTYYADSVKGRFTISLDNAKNSVYLQMNSVKPEDTAVYYCNAAYPYVRRYKYGYWGQGTLVTVSS	high polyreactivity
QVQLVESGGGLFQAGGSLRLSCAASGSTFIYYVMGWYRQAAGKVWELVAAISTSGGRTYYADSVKGRYTISRDNAMNTVSLLMNSLKPVVTAVYYCAAVARTNGSIKFESWGQGTQVTVSS	high polyreactivity
QVQLVESGGGLVQAGGSLRLSCAASGRIFPTNAMGWYRQAPGKERELVAGISSSGGSTYYADSVKGRFTISRDNAKNTVYLQMNSLKPEDTAVYYCNAVGYQYLRVYYWGQGTQVTVSS	low polyreactivity
QVQLVESGGGLVQAGGSLRLSCAASGSIFYNYAMGWYRQAPGKERELVAAISQSGGSTRYADSVKGRFTISRDNAKNTVYVQMNSLKPEDTAVYYCAASRRKGQGSAGFGYWGQGTQVTVSS	high polyreactivity
QVQLVESGGGLVQAGGSLRLSCAASGYIFLYSTMGWYRQAPGKERELVAAITIGGGTYYADSVKGRFTISRDNAKNTVYLQMNSLKPEDTAVYYCNADYASYYRYSRPLEMNYWGQGTQVTVSS	low polyreactivity
QVQLVESGGGLVQAGGSLRLSCAASGSTFKIYAMGWYRQAPGKERELVASIRGRGGSTYYADSVKGRFTISRDNAKNTVYLQLNSLKPEDTAVYYCNATYGHRYAPGISYDYWGQGSQVTVSS	high polyreactivity
QVQLVESGGGLVQAGGSLRLSCAASGSTFLENAMGWYRQAPGKEREFVAAISKSGGSTSYADSVKGRFTISRDNAKNTVYLQMNSLKPEDTAVYYCATRRSRAYDYWGQGTQVTVSS	high polyreactivity
QVQLVESGGGLVQAGGSLRLSSTASGSTIVAYAMGWYRQAPGKERELVAAITSSGGRTYYADSVKGRFTISRDNAKNSVYLQMNSLKPEDTAVYYCAAVTHGRYDWGQGTQVTVSS	high polyreactivity
QVQLVESGGGLVQAGGSLRLSCAAPGSTFVYYAMGWFRQAPGKEGELVAAISRSGGHTYYADSVKGRFTISRDKAKKTVYLQMNSLKPEETAVYYCAARSYGVQYYYWGQRTQVTVSS	high polyreactivity
